US20250084176A1 (F STAR BETA, published 2025)

What was measured:
[1] = target: T1, mouse CD137, full length, on cells (mouse, UniProt P20334 24-256); assay: cell-based or functional assay
[2] = target: T1, mouse CD137, full length, on cells; assay: cell-based or functional assay; remark: listed apart in the source
mouse CD40 = mouse CD40 (mouse, UniProt P27512 24-193, limits assumed, biotinylated (EZ-Link Sulfo-NHS-SS-Biotin)); assay: BLI (Octet QKe), biotinylated receptor on streptavidin sensors
Experimental: (§1) The specificity of the anti-mouse CD137 Fcabs for mouse CD137 was tested in HeID1.3 “mock” mAb² format and measured by BLI in an Octet QKe system by testing for binding of the Fcabs to other mouse TNFRSF receptors (CD40, OX40, GITR). […] Anti-mouse CD137 Fcabs in mock mAb² format were diluted 1:1 in kinetic buffer (PALL 18-1092) to a final concentration of at least 1 μM. Antigen-coated sensors were dipped into the mAb² solutions for 180 seconds followed by 180 seconds in 1× kinetic buffer. Antibodies for each of the TNFRSF receptors were used as positive controls.

mouse GITR = target: T2, mouse GITR (mouse, UniProt O35714 20-153, limits assumed, biotinylated (EZ-Link Sulfo-NHS-SS-Biotin)); assay: as above
T2 sequence (looked up): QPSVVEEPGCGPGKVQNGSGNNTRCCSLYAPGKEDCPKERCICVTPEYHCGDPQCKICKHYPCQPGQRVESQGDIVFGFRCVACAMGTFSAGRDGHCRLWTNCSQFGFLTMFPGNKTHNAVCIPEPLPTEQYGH
Experimental: as §1

mouse CD40, sequence (P27512 24-193 limits assumed): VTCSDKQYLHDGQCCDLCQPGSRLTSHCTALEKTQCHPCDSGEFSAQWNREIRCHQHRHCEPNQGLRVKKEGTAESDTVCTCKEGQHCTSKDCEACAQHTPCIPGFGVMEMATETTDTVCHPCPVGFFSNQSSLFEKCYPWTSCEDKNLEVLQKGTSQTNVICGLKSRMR

B1: FS22m-063/HelD1.3 (bispecific antibody, human IgG1, kappa)
heavy: QVQLQESGPGLVRPSQTLSLTCTVSGSTFSGYGVNWVRQPPGRGLEWIGMIWGDGNTDYNSALKSRVTMLVDTSKNQFSLRLSSVTAADTAVYYCARERDYRLDYWGQGSLVTVSSASTKGPSVFPLAPSSKSTSGGTAALGCLVKDYFPEPVTVSWNSGALTSGVHTFPAVLQSSGLYSLSSVVTVPSSSLGTQTYICNVNHKPSNTKVDKKVEPKSCDKTHTCPPCPAPELLGGPSVFLFPPKPKDTLMISRTPEVTCVVVDVSHEDPEVKFNWYVDGVEVHNAKTKPREEQYNSTYRVVSVLTVLHQDWLNGKEYKCKVSNKALPAPIEKTISKAKGQPREPQVYTLPPSRDEPYWSYVSLTCLVKGFYPSDIAVEWESNGQPENNYKTTPPVLDSDGSFFLYSKLTVMNYRWELGNVFSCSVMHEALHNHYTQKSLSLSPG
light: DIQMTQSPASLSASVGETVTITCRASGNIHNYLAWYQQKQGKSPQLLVYNAKTLADGVPSRFSGSGSGTQYSLKINSLQPEDFGSYYCQHFWSTPRTFGGGTKLEIKRTVAAPSVFIFPPSDEQLKSGTASVVCLLNNFYPREAKVQWKVDNALQSGNSQESVTEQDSKDSTYSLSSTLTLSKADYEKHKVYACEVTHQGLSSPVTKSFNRGEC
notes: also called FS22m-063 in HeID1.3 mock mAb^2 format
NF-kB luciferase reporter (HEK.FRT.luc.mCD137), Protein L crosslinked: EC50 [1]: 1.44 nM | NF-kB luciferase reporter (HEK.FRT.luc.mCD137): fold-change in activity upon crosslinking [1]: 27 fold | IL-2 release, mouse CD137 DO11.10 T cell activation assay, Protein L: +XL EC50 [2]: 0.39 nM | IL-2 release, mouse CD137 DO11.10 T cell activation assay, Protein L: +XL Emax [2]: 24200 pg/mL | binding result (mouse CD40): no binding (tested: at least 1 µM) | binding result (mouse GITR): no binding (tested: at least 1 µM)
